Measurements: patent US6872537 (University of California, dated 2005)

B1: baculovirus-expressed S. purpuratus katanin p80 subunit with N-terminal His(6) tag (other)
chain: HHHHHHMATKRAWKLQELVAHSSNVNCLALGPMSGRVMVTGGEDKKVNLWAVGKQNCIISLSGHTSPVDSVKFNSSEELVVAGSQSGTMKIYDLEPAKIVRTLTGHRNSIRCMDFHPFGEFVASGSTDTNVKLWDVRRKGCIYTYKGHSDQVNMIKFSPDGKWLVTASEDTTIKLWDLTMGKLFQEFKNHTGGVTGIEFHPNEFLLASGSSDRTVQFWDLETFQLVSSTSPGASAVRSISFHPDGSYLFCSSQDMLHAFGWEPIRCFDTFSVFWGKVADTVIASTQLIGASFNATNVSVYVADLSRMSTTGIAQEPQSQPSKTPSGGAEEVPSKPLTASGRKNFVRERPHTTSSKQRQPDVKSEPERQSPTQDEGVKDDDATDIKDPDSYAKIFSPKTRVDHSPERNAQPFPAPLDVPGAQEPEPFKHPPKPAAAAAVAPVSRAPAPSASDWQPAQANPAPNRVPAATKPVPAQEVAPSRKPDPISTIIPSDRNKPANLDMDAFLPPAHAQQAPRVNAPASRKQSDSERIEGLRKGHDSMCQVLSSRHRNLDVVRAIWTAGDAKTSVESVVNMKDQAILVDILNIMLLKKSLWNLDMCVVVLPRLKELLSSKYENYVHTSCACLKLILKNFTSLFNQNIKCPPSGIDITREERYNKCSKCYSYLIATRGYVEEKQHVSGKLGSSFRELHLLLDQLE
notes: Expressed from pFastBac HT in Sf9 cells; also called p80 katanin; recombinant p80
B2: baculovirus-expressed S. purpuratus katanin p60 subunit with N-terminal His(6) tag (enzyme)
chain: HHHHHHMSVDEICENTKMGREYALLGNYETSLVYYQGVLQQIQKLLTSVHEPQRKHQWQTIRQELSQEYEHVKNITKTLNGFKSEPAAPEPAPNHGRAAPFSHHQHAAKPAAAEPARDPDVWPPPTPVDHRPSPPYQRAARKDPPRRSEPSKPANRAPGNDRGGRGPSDRRGDARSGGGGRGGARGSDKDKNRGGKSDKDKKAPSGEEGDEKKFDPAGYDKDLVENLERDIVQRNPNVHWADIAGLTEAKRLLEEAVVLPLWMPDYFKGIRRPWKGVLMVGPPGTGKTMLAKAVATECGTTFFNVSSASLTSKYHGESEKLVRLLFEMARFYAPSTIFIDEIDSICSKRGTGSEHEASRRVKSELLIQMDGVSGPSAGEESSKMVMVLAATNFPWDIDEALRRRLEKRIYIPLPEIDGREQLLRINLKEVPLADDIDLKSIAEKMDGYSGADITNVCRDASMMAMRRRIQGLRPEEIRHIPKEELNQPSTPADFLLALQKVSKSVGKEDLVKYMAWMEEFGSV
notes: Expressed from pFastBac HT in Sf9 cells; also called p60 katanin; recombinant p60

Assays:
[1] = biological target: B2; test: Ni-NTA purification of co-expressed His-tagged subunits, Coomassie-stained SDS-PAGE
[2] = biological target: the molecule itself; test: rotary-shadowing electron microscopy of recombinant p60 on mica (self-association into rings)
[3] = biological target: B1; test: co-immunoprecipitation from insect cells co-infected with p60 and p80 baculoviruses, SDS-PAGE with Coomassie
Procedure: 6xHis-tagged (SEQ ID NO:14) katanin subunits were purified from lysates of baculovirus-infected insect cells by binding to Ni^2+-NTA Superflow followed by elution with imidazole, as described in the Experimental Procedures. […] Proteins bound to the resin were analyzed by SDS-PAGE followed by staining with Coomassie.
After equilibration in TBST, 20–40 μl of antibody beads were added to katanin samples diluted in TBST containing 1–2 mg/ml soybean trypsin inhibitor (SBTI). The immunoprecipitations were incubated at 4° C. for 1–2 hr, washed five times with 1 ml of ice-cold TBST, and eluted in SDS-containing sample buffer.

B1 was tested, and the “p60:p80 molar ratio in the purified co-expressed protein” value [1] was about 0.9 mol p80 per mol p60.

B2: binds [2]; binds [3].
